These results are taken from patent CN111647079A (UNIV BEIBU GULF, dated 2020).

Usually EC50 stands for the concentration needed to bring the measured effect to its halfway point. A high value points to weaker potency. The Kd is a measure of binding affinity in units of concentration. Low values mean tighter binding, high ones weaker binding.

Assay [1] has as its target T1, 2019-NCOV Nucleocapsid (原核表达N蛋白) (SARS-CoV-2, UniProt P0DTC9 1-419).
In assay [2] the target is NCOV-SARI-N-his (真核表达N蛋白) (SARS-CoV-2, UniProt P0DTC9 1-419).
The target in assay [3] is T1, 2019-NCOV Nucleocapsid (原核表达N蛋白). The assay is described as follows: BLI (Fortebio BLItz), […], global fit.

B1: Fab 20抗体 (抗新型冠状病毒N蛋白的中和抗体) (Fab, V domains shown)
VH: VQLLEQSGAEVKKPGSSVKVSCKASGGTFSSYAISWVRQAPGQGLEWMGGTIPIFGTANYAQKFQGRVTITADESTSTAYMELSSLRSEDTAVYYCARGGWSSSAGGYYGMDVWGQGTTVTVSS
VL: not shown
notes: also called HFab20/LFab20
As for B1, the EC50 stood at 3.98 µg/mL in assay [1] and 4.75 µg/mL in assay [2]. Further, in assay [3], the Kd is 111 nM.
